IntAct's records for PubMed 29774127

Legend:
setb1_human SETDB1 = setb1_human SETDB1 (UniProt Q15047)
ehmt2_human EHMT2 = ehmt2_human EHMT2 (UniProt Q96KQ7)
ctnb1_human CTNNB1 = ctnb1_human CTNNB1 (UniProt P35222)

Measured: effect of a mutation on the interaction

Parafibromin (Homo sapiens) (from UniProt Q6P1J9) Y290F;Y293F;Y315F
increasing interaction: setb1_human SETDB1 | ehmt2_human EHMT2 | SETDB1, Q15047-2 | ctnb1_human CTNNB1
